Laboratory results as given in the domain aggregation screens of Martell et al. (2025).

Assay: soluble fraction after stress (log2 fold change); higher = more stays soluble; pooled small domains, quantitative proteomics
Conditions: stress: pH 4
Method in brief: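 Aggregation propensity here comes from the fold change in the soluble amount of each small protein domain after acid stress, measured in pooled custom libraries by high-throughput quantitative proteomics. The acid stress was pH 4. On the log2 scale, higher values mean more of the domain stayed soluble.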

Point of comparison: “HMVRGNLAEELLKLREEEGISFQEAGARSGIARSTISQVVNQGLRLKPNQEESLWRVIEEVRGVKER”, “soluble fraction (log2)” value -0.0263. Against it:
- HMVRDGDTFVVPKMDRFARNVEDTLHLVRELTERGVIFQMGHTVYDPHDPWSKLFLTFLAAIAEA — higher, 0.191
- HMVREVGYNAFLAMLDSGAVKEVARDESEGQITFLATDEKGKERVYKTGIWPDDTLTERLNTAGVEFA — lower, -0.941
- HMVREVSYDQFLHFVEAKQVGMVYQDGESLMFTLKEDVEKEWGVTAYKTGLWPDANLTDRLLDAGVVFS — lower, -1.65
- HMVRSEDLIGLQGRITLATDVETRGFVELSVKGSLLRRPALSLKGPLAKNTAVVVTASNDHTLEVEAL — lower, -0.77
- HMVRSKLEIVPVPEDAVVKIAGLKRLTYQAYQNEDVPYMVYKNGYEAQSGTVFMDTDKTLTVTLEESP — within 0.2 log units, 0.151
- HMVSAMLLHKKEILNLLAEEPEALHFASLLRAFGGRHIKNELKQIVDDLVRSGEILRLRGNRYTLPGADN — within 0.2 log units, -0.149
- HMVSATKAFVNGGNIVVSSPKATRVAVYNVAGQKVAEQAFAGKATIKASDFAKGIYVLKFNDNTVLKLT — within 0.2 log units, -0.0226
- HMVSDAELTSQATTAITAYPGTSVEVKEGQAHLSGTFATEADKQAAIDALKKIQDVKDVHDMATV — within 0.2 log units, 0.0294
- HMVSDSAELSAFVADVIKENAQAVADYKGGKTNVFGWLMGQIIKKSGGKATPAAAAALLKAELEK — within 0.2 log units, -0.14
- HMVSKQVTVNGIQYYQYTVQKSEGFYAISTKFGVTQDDIILANPSTKEGLRVGQEILIPIKT — within 0.2 log units, -0.0976
- HMVSLLDWAYKQVRRMLFSGDLPQGQKIVVAQLANQLSISPTPVKEALNRLAVEGLLEAVPRRGFQVR — lower, -1.02
- HMVSQELIMLGNRIREYRKERGFSQEILAEKSGVSTNTISRIEGGQMAMSVGILQRIVKALGVDANVMLG — within 0.2 log units, 0.12
- HMVSQKPKERELWFREQLELAGLRLDPHAISAINETLGNDTGRFPGIIDTLLSTYGAGKKLSYDDVVMFL — lower, -1.8
- HMVSRAFEEETVKRAESGNQEAALFALELAIREIEHSYEKSKIIDYFVSKVRLFLDNGVSLERALGIH — within 0.2 log units, -0.0689
- HMVSRKIENPYWANKEKQHIIAEFFYPDTNKRVTASIMNDGSNRDYEEILRGYSIEQIDANTNRRLEER — lower, -0.811
- HMVSSEGLASGIERMLVEFGLETDKGRRFAMWSLLYMLGSAPDLDVAFKDPRDREAARTFMDLLDQANA — lower, -0.99
- HMVSSVAAISQMIDEKDRYTSEHSHRVAEYARLIGAHMGFAGEELDSLYRSALLHDIGKIAVPDAILNK — lower, -0.417
- HMVSTDPVHLFNLGTANRRAGRASEAITSYRKFMEAAPQHPQVPEARAYIHDMEVLLQERQKSEQAASQLS — within 0.2 log units, -0.0261
- HMVSTSVTVTGDLNVRADSRADSDLVGALIPGQTVTRLAVLDNGWSKIRFDDGAGTVVEGYVLSEYLQADG — within 0.2 log units, 0.131
- HMVSVEINTVERDETFRKMFTSGWKPENRIQALAVEQAKKNGLGRMSEVAGLASFRGIWKQATEQVALEA — within 0.2 log units, -0.0443
- HMVSVLDHIVGIGAKRRQSLWNHFGTIDKIKAASIDELLKAPGMNRPSAEAVYYFFEAQRQLRGK — within 0.2 log units, 0.0106
- HMVTEKNALTIEIEDLTKRFGNQRESLLPILQEVQLKHGHISDFAQQEIARLLDIHPVEVYGVVTFFSFLS — lower, -2.43
- HMVTGSIYERKGIYYAIVSYYVDGRRKQKSVSTGLSVKGNKRRALEFLENLKRTYETKESMENMD — higher, ≥ 0.43
- HMVTIEEMMDRLLTRVQRAVNMSFSEFSGEAKEKVEVIVSFLALLELVKQGAVDVLQHENFSDIRIENT — lower, -0.841
- HMVTKQKKLVLTIIERSHGHLSAEEIFFRAREEMPNIALGTVYRNLNSLTEEGIVRRITLPGTSDRFDT — lower, -0.506
- HMVTKTTYAYERLKREIMDGTLGQGEKLVVNAISQRYQVSPMPIREALLKLEQEGLVQSAPHRGAWVHK — within 0.2 log units, 0.0193
- HMVTNELFGTRLRAFRKEKGLTIEQLAERVGLSPNYLGDIERGKKLPSMATFIRLVNELDISADEL — higher, 0.174
- HMVTQVDYGTFLTRIDEGKVKSVEIQDNQIAFTAIDEAGKENIYVTGKVNDPELVDRLLAADIEDFSQVIP — lower, -1.29
- HMVTTTEAAKMLLVNAGHDVIKDGLTGASWASNTMKLADADGLLASVATKPNDALPRQYAAQMIYN — higher, 0.265
- HMVVANTAIKSELQNIVANENKQAPLSDQKIVDQLKQAGFDISRRTVVKYRDALGIPTSRNRKR — within 0.2 log units, 0.112
- HMVVEGMQFDRGYLSQYMVTDNEKMVADLENPYILITDKKISNIQEILPLLESILQSSRPLLIIADD — lower, -0.573
- HMVVGYRYVTNVANAVNFRQKPSASSTIITTIPYGTRIGYVEDANSEYARVKYDNMYGYVAKFYLSNYSPP — higher, 0.276
- HMVVLNQEQIKFIDHYLQVSKVRYVDVRSELTDHIATAVELKMQDEALDFYEAFKAFIAVNKSQLLQRN — lower, -0.975
- HMVVNERIKKLRRSLDLTQQEFADRIGVKRNTIANYEIGRNEPIDSVLELIVREFGVSKQWLLDGTGEMF — within 0.2 log units, 0.0586
- HMVVPRSFKYEVLAHGGWAGNAQRYQTKEEALHAGLALSRRWTAVEDYRAVPSDDLPNQPAL — within 0.2 log units, 0.127
- HMVVPSNPDELKGSFSLAEVASGYGLEVAAILEKAGWPADTDPNVKMRDAANAIGRDSTDIRNAVKALLKS — lower, -0.468
- HMVVVPPPATPKPGDVTGDNKINGYDLSILLSNWKRPGATLAQGDLNKDGVVNGLDLSIMLLNWG — within 0.2 log units, 0.0857
- HMVVYDAELLLNINPGMSYEEVKEMLGDPGMIIAGNDAENSVYRWSTGGISFMGRFENGALIRKSIISP — lower, -0.916
- HMVWNVEQIKRAVDQLPDGYRVVFTLYLFEGYDHREIADILGISEGGSKSQFNRAKSKLKEILTAMS — lower, -1.2
- HMVWTAGEVVERIRERVGHPATIRELMQVLTIPPEDRHRFRRRIMQLVEAGELIRIRGNRYGLAD — within 0.2 log units, 0.124
- HMVYNGYYAKSFNGYVVILNGDEKTVYEYTQIPIHLLPEDIRSSVMSGYYLENETDLYNFLENYS — within 0.2 log units, -0.211
- HMWAVDFVLLDKDDQRIGNAVAYRDDRTKGMDEEVYRTVPEEELYASTGIQKQIFNSIYQLMAWKK — lower, -1.25
- HMWDRFGELDSAEEINRIAAAELREGDIDALKVLAEENGLDKDDVEDYIDRLIDELTTPELAAIGKLDV — within 0.2 log units, -0.0336
- HMWKQISSEAELLPAVRSVIQANPGEAEKLRNGEMAPLEFLTGLVMKKTNGMAVPQIVKTLIKKELKI — within 0.2 log units, 0.0805
- HMWKSEAGKKIIESLAQKYNKSNAQIILRWHIQMGYIVIPGARSENHIKENINIFDFKLTNEEINNILKLN — within 0.2 log units, -0.124
- HMWMTAQDFRNSSLPWSATTSYNEGQSVRVVDGSNTYYYIAIVKTQPGQSPTTHPTSWREVDA — higher, 0.311
- HMWNLPDPVVRPEGNVTVYENFKNTVEVLNREADLVLKFLQNEFGTSANIDDTGRARLTGSFSTDRVSSVI — lower, -0.529
- HMWSNTAVIDRIRQLHEEGQPISSQSVQVNHKSLYMAAIKRFRGWKRAVEAAGIDYRQIRLR — higher, 0.404
- HMWWTPIILRDALFGVQRFEDFQKNLDVSRATLSSRLTRLVDEGLMEKVEYQQHPVRHEYVLTEKGR — higher, 0.194
- HMYAGTWTTESGQWKYRQDDGTYAKGWLQDTDGRWYYFDANGRMLSNTATPDGYQVGEDGAWVNH — lower, -0.651
- HMYAMTAEDWIVSGNRKYINDDLQGAIADYTKAIEIDPNYAAIYLVRGKAKYELKNYQGAIEDYTKAIE — lower, -1.48
- HMYAPKIETIQVPQDKIREVIGTGGKVIREIVETTGAKIDIGDTGLIKVASSDGEAIRAALDWINSIVAE — lower, -0.758
- HMYATQLLQLEEMGFFDRAENIRALRATNGNVNAAVERL — within 0.2 log units, -0.114
- HMYDASELNKALEEAKKLDLNNYTEESSEALKNAISKAEEALLSKDKETINSALEELNKAMDSL — lower, -0.615
- HMYDEAAIRKAVMTFVTDNRDERLDLAKISAVLTSKFGNINFDELGYKRFSSFIDSFPELRRNNTFVSLR — within 0.2 log units, -0.193
- HMYDFGVILQKLRKEKGFTQEQLARLIHKESSIISRYEKGLQNPTFETVKEFAAIFNVSMDYLAG — lower, -0.255
- HMYEGNEFSSTGMFREDILAITAVHPMREDAVTELLARSNESEETLEMMIDEELLRRVAYGNHNYYMRRFR — lower, -0.388
- HMYEHLKALRESLGMTQAEFGESVGVAKSTYNNYEIGARDPKSDFWIAVAQRYGVTIDYLMGFSDDPKKT — higher, 0.253
- HMYELSDTEWKIIEQVGLGASNKEIAASLHFSEGTIRNYLSVILDKLSLRDRTQLAILYVKMN — within 0.2 log units, -0.122
- HMYEPPTEDEKRVLSLLATRESIVRSDVDRLLGVSQSTANRILKQMIEKYLISQEGTGKNTKYIK — within 0.2 log units, -0.113
- HMYESAMSDLHARIMSSDDPHGEIYKMLTQSGPEAKYIQDMYNETSIDRGLHPDDDFEDIIDAMVAELDD — lower, -1.24
- HMYEVVPNMKGLSYEQAATALRTAGLEPELSDSIYDDKTRPGTVLEQSPRANTKVKPGRTVYLTVNAF — within 0.2 log units, 0.105
- HMYFFNTFTQRLFDNPELTQEEAIRQMYPGISGVQTAEKLQENFMADVYIQAAIRQEIVVQLIR — higher, 0.22
- HMYGSLGEYELAAVQWIYGKGKITTRELSSLIGKGLTLSSKTLRGLAAKGILEWHGNSKNDPSQFYSLP — within 0.2 log units, -0.196
- HMYHADLIGLEARSTAGDKLGEVNAVYNFGAGDLIEIKMTDGNLEMLPFTRQYVPTVSIKDGFIIVQM — lower, -1.08
- HMYHIYPVADNDTPKLSADRLEYSLSNALLTNKLLNIDEIKKIYNDVILDKDEDGTLELSFKS — within 0.2 log units, 0.167
- HMYIDANTALLAKRIQAKNGFLPLSDKSTAEEIYAEFGISKKAFKKALGALYKERLVRIGDEGVVWV — within 0.2 log units, 0.0176
- HMYINVQNARTIASFRSSLWRMHRDFTNQGYITADGLKTFLEMGKLYEDAGGNDIYHSKLLPEITALEIKY — lower, -0.421
